One data set relates to Uke-1 cells. Nature of the data set: ADCC activity in vitro (Calcein release, NK3.3 effector cells). The class given is cell-based, human. The following applies: effector to target ratio 20 to 1. The protocol: In brief, Uke-1 cells were stained with Calcein acetoxy-methyl ester (Calcein-AM; Sigma-Aldrich catalog #17783-5MG, St. Louis, Mo.), washed twice, pipetted into a 96-well microtiterplate (96 well, U-bottomed, clear plastic; Corning Costar, catalog #650 160, Tewksbury, Mass.) at a concentration of 5000 cells per well and pre-incubated for 10 min with a serial dilution of the above mentioned antibodies and proteins (from 50,000 to 0.003 μg per ml) before adding the effector NK3.3 cells for 1 hour in an effector to target ratio of 20 to 1. In order to calculate the antibody specific lysis of the target cells, a parallel incubation of target cells only without antibody or effector cells served as a baseline and negative control, whereas the positive control or maximal lysis or hundred percent specific lysis was determined by lysis of target cells only with a 1% Triton-X 100 solution. […] Following a co-incubation of target and effector cells, the microtiterplate was centrifuged and an aliquot of the supernatant fluid was transferred to another microtiterplate (96 well, flat-bottomed, black with clear bottom; Corning Costar, catalog #3904, Tewksbury, Mass.) and the concentration of free Calcein in solution was determined with a fluorescence counter (Victor 3® multilabel counter, Perkin Elmer, Waltham, Mass.).

For data set [1], the target named is T1, cKIT extra-cellular domain (SEQ ID NO:160) (Homo sapiens, UniProt P10721).
T1 construct: LENGTH: 503 amino acids; made in house; host or cells: HEK293 derived cell lines (293FS), transient transfection
T1 sequence (P10721 with tags, fused parts or gaps isoform P10721-2): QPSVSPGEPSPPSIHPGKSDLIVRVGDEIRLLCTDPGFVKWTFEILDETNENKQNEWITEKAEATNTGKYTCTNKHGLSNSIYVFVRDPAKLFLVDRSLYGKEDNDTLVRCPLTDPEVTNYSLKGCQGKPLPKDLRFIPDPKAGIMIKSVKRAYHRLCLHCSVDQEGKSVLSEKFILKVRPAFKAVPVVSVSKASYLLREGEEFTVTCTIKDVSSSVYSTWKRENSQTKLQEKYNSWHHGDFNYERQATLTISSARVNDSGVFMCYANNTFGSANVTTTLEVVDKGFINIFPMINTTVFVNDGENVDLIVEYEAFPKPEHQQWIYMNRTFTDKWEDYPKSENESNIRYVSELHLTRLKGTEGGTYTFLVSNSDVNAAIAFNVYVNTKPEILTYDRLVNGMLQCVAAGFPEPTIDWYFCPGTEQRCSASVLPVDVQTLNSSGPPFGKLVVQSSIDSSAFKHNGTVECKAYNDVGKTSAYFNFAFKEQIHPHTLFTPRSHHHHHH
Description: Epitope mapping by deuterium exchange mass spectrometry (HDx-MS). The class given is binding. The following applies: Region 1 residues 109-119, Region 2 residues 185-196. As for the experimental part:
In these experiments, the deuterium uptake of cKIT extra-cellular domain (SEQ ID NO:160, see below) was measured in the absence and presence of a therapeutic mAb, 9P3. Regions in cKIT that show a decrease in deuterium uptake upon binding of the antibody are likely to be involved in the epitope; however, due to the nature of the measurement it is also possible to detect changes remote from the direct binding site (allosteric effects). Usually, the regions that have the greatest amount of protection are involved in direct binding although this may not always be the case. In order to delineate direct binding events from allosteric effects orthogonal measurements (e. g. X-ray crystallography, alanine mutagenesis) are necessary.
The cKIT epitope mapping experiments are performed on a Waters Synapt® G2 HDx-MS platform, which includes LEAP® robot system, nanoACQUITY® UPLC System, and Synapt® G2 mass spectrometer. In this method, triplicate control experiments are carried out as follows. 300 pmol (1.4 mg/ml) of cKIT antigen is diluted into 110 ul of 95% deuterated PBS buffer (pH 7.4) and incubates at room temperature on a bench rotator for 25 minutes (% D=85.5%). Deuterium exchange is quenched by 1:1 dilution with cold quench buffer (6M Urea and 1M TCEP pH=2.5) on ice for 5 min. […] The sample is analyzed using the same on-line pepsin digestion/LC-MS setup as the control experiment.

Data set [2] deals with GIST T1 subcutaneous tumor xenograft. Nature of the data set: Efficacy of murine 9P3 ADCs, MCC-DM1 vs SPDB-DM4. The class given is in vivo, mouse. As to conditions: single i.v. dose 10 mg/kg, unconjugated antibody.

As for MabCampath [reference compound], in the data set on Uke-1 cells, the ADCC result is listed as “mediated ADCC killing of the target cells”.

B1: 9P3: hybridoma derived anti-cKIT antibody; VH SEQ ID NO.9, VL SEQ ID NO.18 (antibody, V domains shown)
VH: EVRLVESEGGLVQPRSSMKLSCTASGFTFSDYYMAWVRQVPEKGLEWVANINYDGSSTYYLDSLKSRFIISRDNAKNILYLQMSSLKSEDTATYYCARGDYYGTTYWYFDVWGTGTTVTVSS
VL: DIQMTQTTSSLSASLGDRVTISCRASQDISNYLNWYQQKPDGTVKLLIYYTSRLQSGVPSRFSGSGSGTDYSLTISNLEQEDIATYFCQQGKKLWSFGGGTKLEIKR
Turning to B1, in data set [1], the “epitope (regions protected from deuterium exchange)” value was “discontinuous epitope that is remote from the SCF binding sites”. The antitumor efficacy entry in data set [2] is on record as “Neither the control non-specific IgG1 ADCs nor the unconjugated 9P3 were efficacious”.

The values are drawn from patent publication US10117953B2, “Antibody drug conjugates” (Novartis AG, priority 2013, dated 2018).
